Assay results: the RNAGym collection of RNA variant scans (doi:10.1073/pnas.2313332121)

B1: TPR t1 (parent)
chain: GACCAAUCUGCCCUCAGAGCUCGAGAACAUCUUCGGAUGCAGAGGAGGCAGGCUUCGGUGGCGCGAUAGCGCCAACGUCCUCAACCUCCAAUGCAUCCCACCACAUGAUGAUGCCUGAAGAGCCUUGGUUUUUUG

Variants of: B1
Assay: polymerase ribozyme fitness, log enrichment relative to wild type (log ratio); higher = more active; in vitro selection for triplet polymerase activity
Summary of the method: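 Mutant libraries of both subunits of a heterodimeric triplet polymerase ribozyme were PCR-built, transcribed, and selected once in triplicate, with frozen incubation at −7 °C and capture of gel-excised extended constructs on streptavidin beads before RT-PCR. Illumina sequencing of input and output libraries was filtered to genotypes with ≥10 input reads and ≥1 read per output. Fitness is the logarithm of genotype enrichment over wild-type enrichment, using inverse-variance-weighted replicate averages. The logarithm is base 2.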

Variant | polymerase ribozyme fitness (log ratio)
GACCAAUCUGCCCUCAGAGCUCGAGAACAUCUUCGGAUGCAGAGGAGGCAGGCUUCGGGGGCGCGAUAGCGGCAACGUCCUCAACCUCCAAUGCAUCCCACCACAUGAUGAUGCCUGAAGAGCCUUGGUUUUUUG [U59G C72G] | -2.51
GACCAAUCUGCCCUCAGAGCUCGAGAACAUCUUCGGAUGCAGAGGAGGCAGGCUUCGGGGGCGCGAUAGCGCCAAUGUCCUCAACCUCCAAUGCAUCCCACCACAUGAUUAUGCCUGAAGAGCCUUGGUUUUUUG [U59G C76U G110U] | -2.81
GACCAAUCUGCCCUCAGAGCUCGAGAACAUCUUCGGAUGCAGAGGAGGCAGGCUUCGGUAGCGCGAUAGCGCCAACGUCCUCAACCUCCAAUGCAUCCCACCACAUGAUGAUGCCUGAAGAGCCUUGGUUUUUUG [G60A] | -0.00692
GACCAAUCUGCCCUCAGAGCUCGAGAACAUCUUCGGAUGCAGAGGAGGCAGGCUUCGGGGGCGCGAUAGCGCCAACGUCCUAAACCUCCAAUGCAUCCCACCACAUGAUAAUGCCUGAAGAGCCUUGGUUUUUUG [U59G C82A G110A] | -0.532
GACCAAUCUGCCCUCAGAGCUCGAGAACAUCUUCGGAUGCAGAGGAGGCAGGCUUCGGGGGCGCGAUGGCGCCAACGUCCUCAACCUCCAAUGCAUCCCACCACAUGAUGAUGCCUGAAGAGCCUUGGUUUUUUG [U59G A68G] | -3.01
GACCAAUCUGCCCUCAGAGCUCGAGAACAUCUUCGGAUGCAGAGGAGGCAGGCUUCGGGGGCGCGAUAGCGCCAACGUCCUCAACCUCCAAUGCAUCCCACCACAUGAUGAUGACUGAAGAGCCUUGGUUUUUUG [U59G C114A] | -1.42
GACCAAUCUGCCCUCAGAGCUCGAGAACAUCUUCGGAUGCAGAGGAGGCAGGCUUCGGGGGCGCGAUAGCGCCAACGUCAUCAACCUCCAAUGCAUCCCACCACAUGAUGAUGCCUGAAGCGCCUUGGUUUUUUG [U59G C80A A121C] | -0.276
GACCAAUCUGCCCUCAGAGCUCGAGAACAUCUUCGGAUGCAGAGGAGGCAGGCUUCGGGGGCGCGAUAGCGCCAACGUCCUCAACCUCCAAUGCAUCCCACCACAUGAUGAUGCCUGAAGAGCCUUGGUUUUUUG [U59G] | -0.0797
GACCAAUCUGCCCUCAGAGCUCGAGAACAUCUUCGGAUGCAGAGGAGGCAGGCUUCGGGGGCGCGAUAGCGCCAACGUCCUCAACCUCCAAUGCAUCCCACCACAUGAUGAUUCCUGAAGAGCCUAGGUUUUUUG [U59G G113U U126A] | -3.87
GACCAAUCUGCCCUCAGAGCUCGAGAACAUCUUCGGAUGCAGAGGAGGCAGGCUUCGGGGGCGCGAUAGCGCCAACGUCCUCAACCUCCAAUGCAUCCCACCACAUGAUGAUGCCUGAAUAGCUUUGGUUUUUUG [U59G G120U C124U] | 1.23
GACCAAUCUGCCCUCAGAGCUCGAGAACAUCUUCGGAUGCAGAGGAGGCAGGCUUCGGGGGCGCGAUAGCGUCAACGUCCUCAACAUCCAAUGCAUCCCACCACAUGAUGAUGCCUGAAGAGCCUUGGUUUUUUG [U59G C72U C86A] | -2.04
GACCAAUCUGCCCUCAGAGCUCGAGAACAUCUUCGGAUGCAGAGGAGGCAGGCUUCGGGGGCGCGAUAGCGCUAACGUCCUCAACCGCCAAUGCAUCCCACCACAUGAUGAUGCCAGAAGAGCCUUGGUUUUUUG [U59G C73U U87G U116A] | -4.15
GACCAAUCUGCCCUCAGAGCUCGAGAACAUCUUCGGAUGCAGAGGAGGCAGGCUUCGGCGGCGCGAUAGCGCCAACGUCCUCAACCUCCAAUUCAUCCCACCACAUGAUGAUGCCUGAAGAGCCUUGGUUUUUUG [U59C G93U] | -1.12
GACCAAUCUGCCCUCAGAGCUCGAGAACAUCUUCGGAUGCAGAGGAGGCAGGCUUCGGGGGCGCGAUAGCGCCAACGUCCUCAACCUUCAAUGCAUCCCACCACAUGAUGAUGCCUGAAGAGCCUUGGUUUUUUG [U59G C88U] | 0.0468
GACCAAUCUGCCCUCAGAGCUCGAGAACAUCUUCGGAUGCAGAGGAGGCAGGCUUCGGCGGCGCGAUAGCGCCAACGUCCUCAACCUCCAAUGCAUCCCACCACAUGAGGAUGCCUGAAGAGCCUUGGUUUUUUG [U59C U109G] | -5.76
GACCAAUCUGCCCUCAGAGCUCGAGAACAUCUUCGGAUGCAGAGGAGGCAGGCUUCGGGGGCGCGAUAGCGCCAACGUCCACAACCUCCAAUGCAUCCCACCACAUGAUGAUGCCUGAAGAGCCUUGGUUUUUUG [U59G U81A] | -0.876
GACCAAUCUGCCCUCAGAGCUCGAGAACAUCUUCGGAUGCAGAGGAGGCAGGCUUCGGGGGCGCGAUAGCGCCAACGACCUCAACCUCCAAUGCAUCCCACCACAUGAUGAUGCCUGAAGAGCCUUGGUUUUUUG [U59G U78A] | 0.3
GACCAAUCUGCCCUCAGAGCUCGAGAACAUCUUCGGAUGCAGAGGAGGCAGGCUUCGGGGGCGCGAUAGCGCCAACGUCCUCAACCUCCAAUGCAUCCCACCACAUGAUGAUACCUGAAGUGACUUGGUUUUUUG [U59G G113A A121U C123A] | -1.97
GACCAAUCUGCCCUCAGAGCUCGAGAACAUCUUCGGAUGCAGAGGAGGCAGGCUUCGGCGGCGCGAUAGCGCCAACGUCCUCAACCUCCAAUGCAUCCCACCACAUGAUGAUGCCUGAAGAGCCUUGGUGUUUUG [U59C U130G] | -0.745
GACCAAUCUGCCCUCAGAGCUCGAGAACAUCUUCGGAUGCAGAGGAGGCAGGCUUCGGGGGCGCGAUAGCGUCAACGUCCUAAACCUCCAAUGCAUCCCACCACAUGAUAAUGCCUGAAGAGCCUUGGUUUUUUG [U59G C72U C82A G110A] | -1.21
GACCAAUCUGCCCUCAGAGCUCGAGAACAUCUUCGGAUGCAGAGGAGGCAGGCUUCGGGGGCGCGAUAGCGCCAACGUCCUCAACCUCCAAUGCAACCCACCACAUGAUGAUGCCUGAAGAGCCUUGAUUUUUUG [U59G U96A G128A] | -2.77
